Sequences and labels used below:
B1: ZNF649 (parent)
chain: YQAGKPDALTKLEQGEPLWTLEDE
B2: KIAA0774 (parent)
chain: FEDEVKRLGWQQQAELQELEERLQ
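Note: lentivirally expressed fusions sorted by FACS into six bins by GFP to DsRed ratio, PSI derived from sequencing read proportions per bin multiplied by bin number.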

The variants in the first series derive from B1. Put plainly: protein stability index of a GFP-peptide fusion (GPS, HEK-293T) (PSI 1-6); higher = more stable. To be noted: c terminus: a fixed tail appended.
For YQAGKPDALTKLEQGEPLWTLEDS [E24S], the protein stability index amounted to 4.27.
Same read-out and setting: to YQAGKPDALTKLEQGEPLWTLEDT [E24T] belongs 4.42; to YQAGKPDALTKLEQGEPLWTLEDV [E24V], 3.42.
On the same count and under the same terms, then YQAGKPDALTKLEQGEPLWTLEDR [E24R], with 4.48; and YQAGKPDALTKLEQGEPLWTLEDW [E24W], with 2.38; and YQAGKPDALTKLEQGEPLWTLEDY [E24Y], with 3.29.

In a further series the parent is B2. Described as above. As to conditions: c terminus: a fixed tail appended.
On to FVDEVKRLGWQQQAELQELEERLQ [E2V], for which the protein stability index was 2.21.
As to FFDEVKRLGWQQQAELQELEERLQ [E2F], the protein stability index amounted to 3.25.
As for FTDEVKRLGWQQQAELQELEERLQ [E2T], the protein stability index was found to be 2.77.
As for FMDEVKRLGWQQQAELQELEERLQ [E2M], the protein stability index was found to be 2.77.
Still for that read-out and setting: to FGDEVKRLGWQQQAELQELEERLQ [E2G] belongs 3.14.
On the same count and under the same terms, to FIDEVKRLGWQQQAELQELEERLQ [E2I] belongs 3.12; to FNDEVKRLGWQQQAELQELEERLQ [E2N], 2.5.
The same measure, in the same setting: then FCDEVKRLGWQQQAELQELEERLQ [E2C], with 2.71.
As for FQDEVKRLGWQQQAELQELEERLQ [E2Q], the protein stability index turned out to be 2.93.
The same measure, in the same setting: then FHDEVKRLGWQQQAELQELEERLQ [E2H], with 2.16.
The same measure, in the same setting: to FPDEVKRLGWQQQAELQELEERLQ [E2P] belongs 3.16; to FKDEVKRLGWQQQAELQELEERLQ [E2K], 2.27; to FDDEVKRLGWQQQAELQELEERLQ [E2D], 3.79.
The same measure, in the same setting: then FYDEVKRLGWQQQAELQELEERLQ [E2Y], with 3.56; and FRDEVKRLGWQQQAELQELEERLQ [E2R], with 4.41.
As for FADEVKRLGWQQQAELQELEERLQ [E2A], the protein stability index stood at 2.71.
On the same count and under the same terms, then FSDEVKRLGWQQQAELQELEERLQ [E2S], with 2.32.
On the same count and under the same terms, to FWDEVKRLGWQQQAELQELEERLQ [E2W] belongs 3.33; to FLDEVKRLGWQQQAELQELEERLQ [E2L], 3.05.
On the same count and under the same terms, to FEDEVKRKGWQQQAELQELEERLQ [L8K] belongs 3.57; to FEDEVKRHGWQQQAELQELEERLQ [L8H], 3.79.
On to FEDEVKRQGWQQQAELQELEERLQ [L8Q], for which the protein stability index worked out at 4.48.
Still for that read-out and setting: then FEDEVKRYGWQQQAELQELEERLQ [L8Y], with 3.72; and FEDEVKRSGWQQQAELQELEERLQ [L8S], with 3.88.
The same measure, in the same setting: to FEDEVKREGWQQQAELQELEERLQ [L8E] belongs 4.52.
The same measure, in the same setting: to FEDEVKRWGWQQQAELQELEERLQ [L8W] belongs 3.4.
Consider FEDEVKRIGWQQQAELQELEERLQ [L8I], for which the protein stability index stood at 3.86.
As for FEDEVKRAGWQQQAELQELEERLQ [L8A], the protein stability index came out at 3.66.
On the same count and under the same terms, to FEDEVKRGGWQQQAELQELEERLQ [L8G] belongs 3.42.
For FEDEVKRPGWQQQAELQELEERLQ [L8P], the protein stability index worked out at 4.45.
Still for that read-out and setting: to FEDEVKRDGWQQQAELQELEERLQ [L8D] belongs 4.77.
The same measure, in the same setting: to FEDEVKRFGWQQQAELQELEERLQ [L8F] belongs 3.98; to FEDEVKRRGWQQQAELQELEERLQ [L8R], 4.05; to FEDEVKRTGWQQQAELQELEERLQ [L8T], 3.93.
Same read-out and setting: to FEDEVKRVGWQQQAELQELEERLQ [L8V] belongs 4.25.
Take FEDEVKRNGWQQQAELQELEERLQ [L8N]: the protein stability index came to 3.48.
Still for that read-out and setting: to FEDEVKRMGWQQQAELQELEERLQ [L8M] belongs 2.83; to FEDSVKRLGWQQQAELQELEERLQ [E4S], 2.83; to FEDQVKRLGWQQQAELQELEERLQ [E4Q], 3.26.
Same read-out and setting: to FEDTVKRLGWQQQAELQELEERLQ [E4T] belongs 3.2.
Still for that read-out and setting: to FEDKVKRLGWQQQAELQELEERLQ [E4K] belongs 2.97; to FEDLVKRLGWQQQAELQELEERLQ [E4L], 2.47; to FEDGVKRLGWQQQAELQELEERLQ [E4G], 3.21.
For the variant FEDCVKRLGWQQQAELQELEERLQ [E4C], the protein stability index worked out at 2.93.
FEDRVKRLGWQQQAELQELEERLQ [E4R]: the protein stability index was found to be 3.32.
Regarding FEDVVKRLGWQQQAELQELEERLQ [E4V], the protein stability index was determined as 3.33.
Still for that read-out and setting: then FEDPVKRLGWQQQAELQELEERLQ [E4P], with 3.56; and FEDHVKRLGWQQQAELQELEERLQ [E4H], with 3.59.
As for FEDFVKRLGWQQQAELQELEERLQ [E4F], the protein stability index was 3.38.
Still for that read-out and setting: then FEDYVKRLGWQQQAELQELEERLQ [E4Y], with 3.64; and FEDAVKRLGWQQQAELQELEERLQ [E4A], with 2.75.
The same measure, in the same setting: to FEDWVKRLGWQQQAELQELEERLQ [E4W] belongs 2.81.
Same read-out and setting: to FEDIVKRLGWQQQAELQELEERLQ [E4I] belongs 3.19; to FEDDVKRLGWQQQAELQELEERLQ [E4D], 4.14.
In the case of FEDNVKRLGWQQQAELQELEERLQ [E4N], the protein stability index was 3.49.
As to FEDMVKRLGWQQQAELQELEERLQ [E4M], the protein stability index turned out to be 3.12.
On the same count and under the same terms, then HEDEVKRLGWQQQAELQELEERLQ [F1H], with 4.02; and NEDEVKRLGWQQQAELQELEERLQ [F1N], with 4.32; and KEDEVKRLGWQQQAELQELEERLQ [F1K], with 2.96.
As to GEDEVKRLGWQQQAELQELEERLQ [F1G], the protein stability index was 3.56.
On the same count and under the same terms, then DEDEVKRLGWQQQAELQELEERLQ [F1D], with 4.72.
Still for that read-out and setting: to REDEVKRLGWQQQAELQELEERLQ [F1R] belongs 3.41; to CEDEVKRLGWQQQAELQELEERLQ [F1C], 3.11; to SEDEVKRLGWQQQAELQELEERLQ [F1S], 2.67.
The same measure, in the same setting: to MEDEVKRLGWQQQAELQELEERLQ [F1M] belongs 3.68; to QEDEVKRLGWQQQAELQELEERLQ [F1Q], 4.05.
Regarding IEDEVKRLGWQQQAELQELEERLQ [F1I], the protein stability index is 3.86.
Take AEDEVKRLGWQQQAELQELEERLQ [F1A]: the protein stability index turned out to be 4.11.
As for EEDEVKRLGWQQQAELQELEERLQ [F1E], the protein stability index is 4.66.
The same measure, in the same setting: to TEDEVKRLGWQQQAELQELEERLQ [F1T] belongs 2.85; to YEDEVKRLGWQQQAELQELEERLQ [F1Y], 3.38; to VEDEVKRLGWQQQAELQELEERLQ [F1V], 3.66.
Same read-out and setting: then WEDEVKRLGWQQQAELQELEERLQ [F1W], with 3.93.
On the same count and under the same terms, then PEDEVKRLGWQQQAELQELEERLQ [F1P], with 4.12.
Turning to LEDEVKRLGWQQQAELQELEERLQ [F1L], the protein stability index was 4.06.
Still for that read-out and setting: then FEDEVWRLGWQQQAELQELEERLQ [K6W], with 3.89.
On the same count and under the same terms, then FEDEVTRLGWQQQAELQELEERLQ [K6T], with 4.31; and FEDEVDRLGWQQQAELQELEERLQ [K6D], with 3.75; and FEDEVPRLGWQQQAELQELEERLQ [K6P], with 4.48.
FEDEVYRLGWQQQAELQELEERLQ [K6Y]: the protein stability index is 4.4.
Same read-out and setting: to FEDEVVRLGWQQQAELQELEERLQ [K6V] belongs 4.52.
On the same count and under the same terms, to FEDEVFRLGWQQQAELQELEERLQ [K6F] belongs 4.38; to FEDEVERLGWQQQAELQELEERLQ [K6E], 4.67; to FEDEVGRLGWQQQAELQELEERLQ [K6G], 4.5.
The same measure, in the same setting: to FEDEVHRLGWQQQAELQELEERLQ [K6H] belongs 4.14; to FEDEVRRLGWQQQAELQELEERLQ [K6R], 4.03.
Take FEDEVSRLGWQQQAELQELEERLQ [K6S]: the protein stability index was 4.47.
Still for that read-out and setting: to FEDEVIRLGWQQQAELQELEERLQ [K6I] belongs 3.39.

For the origin of these results see the supplement of paper PMC10567573.
